Numbered stars: 1 amine (or outer) side, 2 acyl side, 3 side chain; on linkers, the order of the positions; unused ones are H or OH. Bridge positions count the residues as written; N and C are the ends. * marks the point of attachment. C20 diacid = O=C(O)CCCCCCCCCCCCCCCCCCC(=O)*; γGlu = O=C(O)[C@H](CCC(=O)[*:2])N[*:1]
B1: N^α1-[(4S)-4-carboxy-4-(19-carboxynonadecanoylamino)butanoyl]-[Glu14,Arg17,Pro21,Pro25,Pro28,Pro29]-h-amylin (peptide)
peptide: {C20 diacid-γGlu}-KCNTATCATQRLAEFLRHSSPNFGPILPPTNVGSNTY-NH2
modifications: disulfide 2-7
SMILES: CC[C@H](C)[C@H](NC(=O)[C@@H]1CCCN1C(=O)CNC(=O)[C@H](Cc1ccccc1)NC(=O)[C@H](CC(N)=O)NC(=O)[C@@H]1CCCN1C(=O)[C@H](CO)NC(=O)[C@H](CO)NC(=O)[C@H](Cc1c[nH]cn1)NC(=O)[C@H](CCCNC(=N)N)NC(=O)[C@H](CC(C)C)NC(=O)[C@H](Cc1ccccc1)NC(=O)[C@H](CCC(=O)O)NC(=O)[C@H](C)NC(=O)[C@H](CC(C)C)NC(=O)[C@H](CCCNC(=N)N)NC(=O)[C@H](CCC(N)=O)NC(=O)[C@@H](NC(=O)[C@H](C)NC(=O)[C@@H]1CSSC[C@H](NC(=O)[C@H](CCCCN)NC(=O)CC[C@H](NC(=O)CCCCCCCCCCCCCCCCCCC(=O)O)C(=O)O)C(=O)N[C@@H](CC(N)=O)C(=O)N[C@@H]([C@@H](C)O)C(=O)N[C@@H](C)C(=O)N[C@@H]([C@@H](C)O)C(=O)N1)[C@@H](C)O)C(=O)N[C@@H](CC(C)C)C(=O)N1CCC[C@H]1C(=O)N1CCC[C@H]1C(=O)N[C@H](C(=O)N[C@@H](CC(N)=O)C(=O)N[C@H](C(=O)NCC(=O)N[C@@H](CO)C(=O)N[C@@H](CC(N)=O)C(=O)N[C@H](C(=O)N[C@@H](Cc1ccc(O)cc1)C(N)=O)[C@@H](C)O)C(C)C)[C@@H](C)O
notes: modifications are with respect to human amylin; also called compound 6
B2: N^α1-[(4S)-4-carboxy-4-(19-carboxynonadecanoylamino)butanoyl]-[Glu14,Arg17,Pro21,Pro26]-h-amylin (peptide)
peptide: {C20 diacid-γGlu}-KCNTATCATQRLAEFLRHSSPNFGAPLSSTNVGSNTY-NH2
modifications: disulfide 2-7
SMILES: CC(C)C[C@H](NC(=O)[C@H](CCCNC(=N)N)NC(=O)[C@H](CCC(N)=O)NC(=O)[C@@H](NC(=O)[C@H](C)NC(=O)[C@@H]1CSSC[C@H](NC(=O)[C@H](CCCCN)NC(=O)CC[C@H](NC(=O)CCCCCCCCCCCCCCCCCCC(=O)O)C(=O)O)C(=O)N[C@@H](CC(N)=O)C(=O)N[C@@H]([C@@H](C)O)C(=O)N[C@@H](C)C(=O)N[C@@H]([C@@H](C)O)C(=O)N1)[C@@H](C)O)C(=O)N[C@@H](C)C(=O)N[C@@H](CCC(=O)O)C(=O)N[C@@H](Cc1ccccc1)C(=O)N[C@@H](CC(C)C)C(=O)N[C@@H](CCCNC(=N)N)C(=O)N[C@@H](Cc1c[nH]cn1)C(=O)N[C@@H](CO)C(=O)N[C@@H](CO)C(=O)N1CCC[C@H]1C(=O)N[C@@H](CC(N)=O)C(=O)N[C@@H](Cc1ccccc1)C(=O)NCC(=O)N[C@@H](C)C(=O)N1CCC[C@H]1C(=O)N[C@@H](CC(C)C)C(=O)N[C@@H](CO)C(=O)N[C@@H](CO)C(=O)N[C@H](C(=O)N[C@@H](CC(N)=O)C(=O)N[C@H](C(=O)NCC(=O)N[C@@H](CO)C(=O)N[C@@H](CC(N)=O)C(=O)N[C@H](C(=O)N[C@@H](Cc1ccc(O)cc1)C(N)=O)[C@@H](C)O)C(C)C)[C@@H](C)O
notes: modifications are with respect to human amylin; also called compound 7
B3: N^α1-[(4S)-4-carboxy-4-(19-carboxynonadecanoylamino)butanoyl]-[Glu14,Arg17,Pro21,Pro27,Arg35]-h-amylin (peptide)
peptide: {C20 diacid-γGlu}-KCNTATCATQRLAEFLRHSSPNFGAIPSSTNVGSRTY-NH2
modifications: disulfide 2-7
SMILES: CC[C@H](C)[C@H](NC(=O)[C@H](C)NC(=O)CNC(=O)[C@H](Cc1ccccc1)NC(=O)[C@H](CC(N)=O)NC(=O)[C@@H]1CCCN1C(=O)[C@H](CO)NC(=O)[C@H](CO)NC(=O)[C@H](Cc1c[nH]cn1)NC(=O)[C@H](CCCNC(=N)N)NC(=O)[C@H](CC(C)C)NC(=O)[C@H](Cc1ccccc1)NC(=O)[C@H](CCC(=O)O)NC(=O)[C@H](C)NC(=O)[C@H](CC(C)C)NC(=O)[C@H](CCCNC(=N)N)NC(=O)[C@H](CCC(N)=O)NC(=O)[C@@H](NC(=O)[C@H](C)NC(=O)[C@@H]1CSSC[C@H](NC(=O)[C@H](CCCCN)NC(=O)CC[C@H](NC(=O)CCCCCCCCCCCCCCCCCCC(=O)O)C(=O)O)C(=O)N[C@@H](CC(N)=O)C(=O)N[C@@H]([C@@H](C)O)C(=O)N[C@@H](C)C(=O)N[C@@H]([C@@H](C)O)C(=O)N1)[C@@H](C)O)C(=O)N1CCC[C@H]1C(=O)N[C@@H](CO)C(=O)N[C@@H](CO)C(=O)N[C@H](C(=O)N[C@@H](CC(N)=O)C(=O)N[C@H](C(=O)NCC(=O)N[C@@H](CO)C(=O)N[C@@H](CCCNC(=N)N)C(=O)N[C@H](C(=O)N[C@@H](Cc1ccc(O)cc1)C(N)=O)[C@@H](C)O)C(C)C)[C@@H](C)O
notes: modifications are with respect to human amylin; also called compound 16

The binders below were run against T1, human calcitonin receptor (human, UniProt P30988 25-474) (assay: IC50 at hCTR divided by IC50 at hAmylin-R (reference)).
T1 construct: whole, on cells; Membranes of a BHK tk'ts 13 cell line stably transfected with the human calcitonin receptor; also called hCTR; hCT
T1 sequence (looked up): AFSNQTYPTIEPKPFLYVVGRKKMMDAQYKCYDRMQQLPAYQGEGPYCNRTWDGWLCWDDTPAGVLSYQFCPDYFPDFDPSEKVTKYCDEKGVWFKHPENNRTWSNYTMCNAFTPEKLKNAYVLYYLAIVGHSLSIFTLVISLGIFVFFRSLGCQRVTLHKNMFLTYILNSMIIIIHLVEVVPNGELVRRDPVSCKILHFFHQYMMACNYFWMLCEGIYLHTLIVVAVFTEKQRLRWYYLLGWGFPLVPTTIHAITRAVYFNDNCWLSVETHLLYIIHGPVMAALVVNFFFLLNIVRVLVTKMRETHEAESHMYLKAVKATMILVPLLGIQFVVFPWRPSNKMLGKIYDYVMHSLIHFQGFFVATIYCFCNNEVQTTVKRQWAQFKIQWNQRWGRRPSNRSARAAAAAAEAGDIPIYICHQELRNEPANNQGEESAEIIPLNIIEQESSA
Procedure: The resulting pellet was resuspended, homogenized and centrifuged (20.000 rpm, 15 min) in a buffer containing 20 mM Na-HEPES and 0.1 mM EDTA (pH 7.4, buffer 2). The resulting pellet was resuspended in buffer 2 and protein concentration was measured (BCA protein Assay, Pierce). The homogenate was kept cold during the whole procedure. The membranes were kept at −80° C. until use. The assay was performed in a 384 well Optiplate (PerkinElmer) in a total volume of 40 ul. Membranes were mixed with SPA beads. Final concentration of membranes 35 ng/μL final and SPA beads was 0.05 mg/well. Test-compounds were dissolved in DMSO and further diluted in assay buffer (50 mM Hepes, pH 7.4, 1 mM CaCl2, 5 mM MgCl₂, 0.1% OA and 0.02% Tween20). […] The final mixture was incubated with shaking at 400 rpm for 120 min at 25° C. prior to centrifugation (1500 rpm, 10 min). Samples were analyzed on TopCounter™ (Packard). The IC₅₀ was calculated using (one site binding competition analysis) GraphPad Prism5 as a measure of receptor affinity.
Membranes were prepared in the following way; the cells were rinsed with PBS and incubated with Versene for approximately 5 min before harvesting. The cells were flushed with PBS and the cell-suspension was centrifuged for 5 min at 1000 rpm. Cells were homogenized (Ultrathurrax) in a buffer containing 20 mM Na-HEPES and 10 mM EDTA (pH 7.4) and centrifuged at 20.000 rpm for 15 min. The resulting pellet was resuspended, homogenized and centrifuged (20.000 rpm, 15 min) in a buffer containing 20 mM Na-HEPES and 0.1 mM EDTA (pH 7.4, buffer 2). The resulting pellet was resuspended in buffer 2 and protein concentration was measured (BCA protein Assay, Pierce). The homogenate was kept cold during the whole procedure. The membranes were kept at −80° C. until use. Assay was performed in a 384 well Optiplate (PerkinElmer) in a total volume of 40 ul. Membranes were mixed with SPA beads.
With B1 the “Ratio hCT/hAmylin binding” value was 20. B2 was tested, and the “Ratio hCT/hAmylin binding” value was 16.5. With B3 the “Ratio hCT/hAmylin binding” value was 19.1.

The binders below were run against T2, rat calcitonin receptor (rat, UniProt P32214 25-516) (assay: IC50 at rCTR divided by IC50 at rAmylin-R (reference)).
T2 construct: whole, on cells; Membranes of BHK tk'ts 13 cells transiently transfected with the rat calcitonin receptor; also called rCTR; rat calcitonin (a) receptor
T2 sequence (looked up): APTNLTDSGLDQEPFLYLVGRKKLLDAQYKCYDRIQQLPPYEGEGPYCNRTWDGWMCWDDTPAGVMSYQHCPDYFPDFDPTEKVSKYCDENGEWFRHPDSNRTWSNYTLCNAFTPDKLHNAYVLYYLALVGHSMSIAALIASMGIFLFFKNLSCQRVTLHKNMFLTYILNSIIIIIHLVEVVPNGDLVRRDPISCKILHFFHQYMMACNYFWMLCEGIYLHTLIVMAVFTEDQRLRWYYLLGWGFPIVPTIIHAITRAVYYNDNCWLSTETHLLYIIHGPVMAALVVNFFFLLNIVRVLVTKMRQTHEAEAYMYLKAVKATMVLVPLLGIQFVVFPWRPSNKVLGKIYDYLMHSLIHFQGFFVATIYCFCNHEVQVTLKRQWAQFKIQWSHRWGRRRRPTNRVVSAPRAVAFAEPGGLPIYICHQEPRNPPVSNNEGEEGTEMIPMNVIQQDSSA
In the case of B1, the “Ratio rCT/rAmylin binding” value is reported as 21.7. With B2 the “Ratio rCT/rAmylin binding” value was 42. For B3, the “Ratio rCT/rAmylin binding” value was 45.6.

These binders were tested against T2, rat calcitonin receptor (assay: SPA competition vs 125I-calcitonin, membranes with rat CTR (Assay VIII)).
In the case of B1, the IC50 is reported as 51.5 nM. For B2, the IC50 was 47.2 nM. B3 showed an IC50 of 55.2 nM.

What follows are binders tested against T3, rat amylin receptor (rat calcitonin receptor + rat RAMP 3) (rat, UniProt P32214 25-516; Q9JJ73 23-147) (assay: SPA competition vs 125I-rat amylin, membranes with rat CTR + rat RAMP3 (Assay VI)).
T3 construct: whole, on cells; Membranes of BHK tk'ts 13 cells transiently transfected with the rat calcitonin receptor and rat RAMP 3; also called rAmylin-R; rat amylin 3(a) receptor
T3 sequence (looked up) 1: T2 sequence (looked up)
T3 sequence (looked up) 2: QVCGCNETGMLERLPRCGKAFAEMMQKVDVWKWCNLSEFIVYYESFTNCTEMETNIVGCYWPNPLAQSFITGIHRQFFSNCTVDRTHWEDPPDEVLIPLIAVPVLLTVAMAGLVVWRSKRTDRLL
Procedure: The binding assay was performed using scintillation proximity assay (SPA) beads (RPNQ0001) from PerkinElmer and cell membranes from the Amylin 3(a)/CRE-luc cells (as described in Assay (II)) were used. Membranes were prepared in the following way; the cells were rinsed with PBS and incubated with Versene for approximately 5 min before harvesting. The cells were flushed with PBS and the cell-suspension was centrifuged for 5 min at 1000 rpm. Cells were homogenized (ultrathurrax) in a buffer containing 20 mM Na-HEPES and 10 mM EDTA (pH 7.4) and centrifuged at 20.000 rpm for 15 min. The resulting pellet was resuspended, homogenized and centrifuged (20.000 rpm, 15 min) in a buffer containing 20 mM Na-HEPES and 0.1 mM EDTA (pH 7.4, buffer 2). The resulting pellet was resuspended in buffer 2 and protein concentration was measured (BCA protein Assay, Pierce). The homogenate was kept cold during the whole procedure. The membranes were kept at −80° C. until use. The assay was performed in a 384 well Optiplate (PerkinElmer) in a total volume of 40 ul. Membranes were mixed with SPA beads. Final concentration of membranes 35 ng/μL final and SPA beads was 0.05 mg/well. Test-compounds were dissolved in DMSO and further diluted in assay buffer (50 mM Hepes, pH 7.4, 1 mM CaCl2, 5 mM MgCl₂, 0.1% OA and 0.02% Tween20). […] The final mixture was incubated with shaking at 400 rpm for 120 min at 25° C. prior to centrifugation (1500 rpm, 10 min). Samples were analyzed on TopCounter™ (Packard). The IC₅₀ was calculated using (one site binding competition analysis) GraphPad Prism5 as a measure of receptor affinity.
Cells were grown in DMEM with 10% FBS and 1% Pen/Strep. Approximately 48 hours after transfection, the cells were harvested and membranes were prepared.
B1 showed an IC50 of 2.37 nM. For B2, the IC50 was 1.12 nM. Binder B3 has an IC50 of 1.21 nM.

Source: patent US20140087995A1 (published 2014)
